Measurements reported in patent US20210324050A1 (published 2021).
Where two headings read alike, the source gives them in different places.

Legend:
[1] = target: GII.4 Sydney 2012 VLP (UniProt P54635 1-538); test: VLP-PGM blockade
[2] = target: Protruding domain; test: ELISA
[3] = target: T1, GII.4 Houston 2002 VLP (UniProt P54635 1-539); test: VLP blockade
[4] = target: T2, GII.4 Houston 2002 (ABY27560.1) VLPs (UniProt P54635 1-539); test: VLP blockade
[5] = target: GII.6 (AF414410) VLPs (norovirus GII.6); test: VLP-PGM blockade
[6] = target: T3, GII.4 Sydney 2012 shell (S) domain (UniProt P54635 1-221); test: ELISA
T3 chain: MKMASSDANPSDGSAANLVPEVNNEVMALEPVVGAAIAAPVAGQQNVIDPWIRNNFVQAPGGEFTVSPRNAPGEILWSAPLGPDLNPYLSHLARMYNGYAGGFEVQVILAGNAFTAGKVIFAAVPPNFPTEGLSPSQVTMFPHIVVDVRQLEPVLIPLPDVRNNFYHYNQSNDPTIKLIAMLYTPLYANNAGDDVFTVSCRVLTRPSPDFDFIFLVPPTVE

[7] = target: T3, GII.4 Sydney 2012 shell (S) domain; test: ELISA
[8] = target: T2, GII.4 Houston 2002 (ABY27560.1) VLPs; test: ELISA binding
[9] = target: GI.3 (norovirus GI.3); test: ELISA
[10] = target: GI.3 (norovirus GI.3); test: VLP-PGM blockade
[11] = target: GI.3 Protruding (norovirus GI.3); test: ELISA
[12] = target: GII.13 (norovirus GII.13); test: ELISA
[13] = target: GII.17 (norovirus GII.17); test: ELISA
[14] = target: GII.3 (norovirus GII.3); test: ELISA
[15] = target: GI.2 (AF435807) VLPs (norovirus GI.2); test: ELISA
[16] = target: GII.6 (AF414410) VLPs (norovirus GII.6); test: ELISA
[17] = target: T4, GI.1 (M87661) VLPs (UniProt Q83884 1-530; Q83885 1-212); test: ELISA
T4 VP1: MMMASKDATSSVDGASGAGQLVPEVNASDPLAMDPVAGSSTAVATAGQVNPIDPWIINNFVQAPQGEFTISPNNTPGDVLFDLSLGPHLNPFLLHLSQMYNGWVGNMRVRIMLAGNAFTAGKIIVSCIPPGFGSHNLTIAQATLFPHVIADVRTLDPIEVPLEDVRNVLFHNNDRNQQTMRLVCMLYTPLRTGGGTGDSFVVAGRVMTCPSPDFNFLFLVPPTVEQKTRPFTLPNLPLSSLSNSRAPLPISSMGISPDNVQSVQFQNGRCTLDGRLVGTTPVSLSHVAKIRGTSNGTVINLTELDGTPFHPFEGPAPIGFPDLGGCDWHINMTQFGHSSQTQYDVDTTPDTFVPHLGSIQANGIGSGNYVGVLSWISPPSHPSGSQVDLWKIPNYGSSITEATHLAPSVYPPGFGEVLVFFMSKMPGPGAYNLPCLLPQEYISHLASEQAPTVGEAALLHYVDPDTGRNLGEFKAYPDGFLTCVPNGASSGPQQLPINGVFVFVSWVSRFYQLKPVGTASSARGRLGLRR
T4 VP2: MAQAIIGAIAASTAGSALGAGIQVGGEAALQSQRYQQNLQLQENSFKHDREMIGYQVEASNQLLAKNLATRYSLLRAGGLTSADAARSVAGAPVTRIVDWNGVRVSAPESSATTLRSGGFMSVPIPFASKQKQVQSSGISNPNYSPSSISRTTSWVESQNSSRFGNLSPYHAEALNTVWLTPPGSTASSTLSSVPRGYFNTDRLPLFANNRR

[18] = target: T1, GII.4 Houston 2002 VLP; test: ELISA binding

B1: 232 (antibody, V domains shown)
VH: QVQLKQWGAGLLKSSETLSLTCAFNGNSFGAFYWSWIRLSPGKGLEWIGEVNYLGGADYNPSLKSRVTMSADTSKRQFSLSLKSVTAADTGVYFCARGRPHDYSPGSYSRPRRYYGLDVWGQGTTVTVSS
VL: EIVLTQSPATLSLSPGDSATLSCRASQAVSTTYLAWYQQTRGQAPRLLIHGTYTRAIGIPDKFSGTGSGTDFTLTISGLAPEDFAVYYCQQYSSSPYTFGQGTKIEIT
Question: B1 was tested. Which EC50 [1] did it give?
Answer: Its EC50 is 4.4 µg/mL.

B2: 246A (antibody, V domains shown)
VH: EVHLVESGGGLVKPGGSLRLSCAASGFTFSRYGMHWVRQAPGKGLEWVSSIVIRSDYKYYADSVKGRFTISRDNAKNSLYLQMNSLRADDTAVYYCARDLVEPGITPVGCDYWGRGTLVTVSS
VL: SNELTQAPSVSVSPGQTARITCFGDALANQYSYWYQRKPGQAPVLVIYKDSERPSGIPQRFSASNSGTTVTLTITGVQAEDEADYFCQSADSTGIYKVFGGGTKLTVL
Question: Which EC50 [2] does the source give for B2 here?
Answer: The EC50 was 0.9 µg/mL.

Question: And the EC50 [1]?
Answer: The EC50 was 7.4 µg/mL.

Question: What about the EC50 [3] of the same binder?
Answer: Its EC50 is 2.1 µg/mL.

B3: NORO-202A.1 (antibody, V domains shown)
VH: QVQLVQSGAEVKKPGASVKVSCKASEYTFTGYYLQWVRQAPGHGLEWMGWINPSGGTKYSQKFQGRVTMTRDTSITTVYMELSRLRSDDTAVYYCARDLLRNWGDHDAFDVWGQGTMVTVSS
VL: QSVLTQPPSASETPGQGVTISCSGSSSNIGSNFVCWYQQVPGTAPKLLIYKNNQRPSGVPDRFSGSKSGTSASLAISGLRSEDEADYYCSAWDDSLSGPVFGGGTKLTVL
Question: For B3, which EC50 [4] is on record?
Answer: Its EC50 is over 100 µg/mL.

Question: What about the EC50 [5] of the same binder?
Answer: Its EC50 is 47 nM.

Question: And the EC50 [6]?
Answer: Its EC50 is 3 nM.

Question: What about the EC50 [7] of the same binder?
Answer: Its EC50 is 0.2 µg/mL.

Question: And the EC50 [8]?
Answer: The EC50 was 0.1 µg/mL.

B4: 323A (antibody, V domains shown)
VH: QVQLVESGGGVVQPGRSLRLSCAASGFTFSGSSLHWVRQAPGKGLEWVAAISYDGTNTYYADSVKGRFTLSRDNSKNTLYLQMNSLRAEDTAVYYCAKPVLSPFDYWGQGTLVTVSS
VL: QSALTQPASVSGSPGQSITISCTGTSSDVGGYNYVSWYQQHPGKAPKLLIYEVSNRPSGVSRRFSGSKSGNTASLTISGLQAEDEADYYCCSYTSSSTEVFGGGTKLTVL
Question: With B4 as the binder, how does the EC50 [9] read?
Answer: Its EC50 is 3 nM.

Question: What about the EC50 [10] of the same binder?
Answer: Its EC50 is 15 nM.

Question: What about the EC50 [11] of the same binder?
Answer: The EC50 was 7 nM.

B5: 178.6 (antibody, V domains shown)
VH: QVQLVESGGGVVQPGRSLRLSCAASGFTFSTYGMNWVRQAPGRGLEWVADISYDGSNSRYADSVKGRFTISRDNSKNTLSLQMNGLRTEDTAVYYCAKDWYLAMAGAAFDSWGPGTLVTVSS
VL: SSELTQDPVVSVALGQTVRITCQGDSLTTFYASWFQQKPGQAPALVLYGNDNRPSGIPDRFSGSRSGNTASLTITGAQAEDEADYYCNSRDSSGKPSFGGGTKLTVL
Question: With B5 as the binder, how does the EC50 [12] read?
Answer: Its EC50 is 18 nM.

Question: What about the EC50 [13] of the same binder?
Answer: Its EC50 is 16 nM.

Question: And the EC50 [9]?
Answer: The EC50 was 83 nM.

Question: And the EC50 [14]?
Answer: The EC50 was 29 nM.

Question: And the EC50 [10]?
Answer: Its EC50 is 470 nM.

Question: What about the EC50 [11] of the same binder?
Answer: Its EC50 is 336 nM.

B6: NORO-168.2 (antibody, V domains shown)
VH: QVQLVESGGGVVQPGRSLRLSCAASGFTFSSYAMHWVRQAPGKGLEWVAVISYDGSNKYYADSVKGRFTISRDNSKNTLYLQMNSLRAEDTAVYYCARSVIGYYYYGMDVWGQGTLVTVSS
VL: QPVLTQPPSASASLGASVTLTCTLSSGYSNYKVDWYQQRPGKGPRFVMRVGTGGIVGSKGDGIPDRFSVLGSGLNRYLTIKNIQEEDESDYHCGADHGSGILFGGGTKLTVL
Question: B6 was tested. Which EC50 [5] did it give?
Answer: The EC50 was 7 nM.

Question: What about the EC50 [6] of the same binder?
Answer: Its EC50 is 78 nM.

Question: What about the EC50 [15] of the same binder?
Answer: Its EC50 is 265 nM.

Question: What about the EC50 [16] of the same binder?
Answer: Its EC50 is 198 nM.

B7: NORO-156.3 (antibody, V domains shown)
VH: QVQLQQWGAGLLKPSETLSLTCAVYGGSFSGYYWSWIRQPPGKGLEWIGEINHSGSTNYNPSLKSRVTISVDTSKNQFSLKLSSVTAADTAVYYCARGLMDVWGQGTLVTVSS
VL: AIRMTQSPSSFSASTGDRVTITCRASQGISSYLAWYQQKPGKAPKLLIYAASTLQSGVPSRFSGSGSGTDFTLTISCLQSEDFATYYCQQYYSYPRTFGQGTKLEIK
Question: Which EC50 [5] does the source give for B7 here?
Answer: The EC50 was 355 nM.

Question: What about the EC50 [17] of the same binder?
Answer: Its EC50 is 42 nM.

Question: What about the EC50 [15] of the same binder?
Answer: Its EC50 is 175 nM.

Question: And the EC50 [16]?
Answer: The EC50 was 39 nM.

B8: 156.3 (antibody, V domains shown)
VH: B7 VH
VL: B7 VL
Question: B8 was tested. Which EC50 [12] did it give?
Answer: The EC50 was 54 nM.

Question: What about the EC50 [13] of the same binder?
Answer: Its EC50 is 90 nM.

Question: And the EC50 [9]?
Answer: The EC50 was 47 nM.

Question: And the EC50 [10]?
Answer: Its EC50 is 678 nM.

B9: 327A (antibody, V domains shown)
VH: QVQLEVSGGGLVKPGGSLRLSCAASGFTFTDYYMSWIRQAPGKGLEWVAYISGIMSSTKYADSVKGRFTISRDNGKNSVYLQMNSLTAEDTAVYYCARERVEPPSAVTDFWGQGTLVTVSS
VL: QSVLTQSPSVSGAPGQRVTISCTGTSSNIGAGYDVHWYQQFPGTAPKLLISHNTNRPSGVPDRFSGSKSGTSASLAITGLQAEDEADYYCQSFDSSLRGSRVFGGGTKLTVL
Question: Which EC50 [18] does the source give for B9 here?
Answer: Its EC50 is 0.3 µg/mL.

Question: And the EC50 [2]?
Answer: Its EC50 is 0.5 µg/mL.

Question: And the EC50 [1]?
Answer: The EC50 was 5 µg/mL.

Question: What about the EC50 [3] of the same binder?
Answer: Its EC50 is 2.2 µg/mL.

B10: NORO-279A (antibody, V domains shown)
VH: QVQLVESGGGVVQPGRSLRLSCAASGFTFTKYGMHWVRQAPGKGLEWVAFIAYDGSVKYYGDSAKGRFAISRDNPKNTVYLQMNSLRAEDTAVYYCAKVEIHYYSNSLLGMDVWGQGTLVTVSS
VL: QSVLTQPPSASGTPGQRVTISCSGGNSNIGISYVYWYQHLPGTAPKLLISKNNLRPSGVPDRFSASKSGTSASLAISGLRSEDEAEYYCATLDINMTWVFGGGTKLTVL
Question: B10 was tested. Which EC50 [4] did it give?
Answer: The EC50 was over 100 µg/mL.

Question: And the EC50 [5]?
Answer: Its EC50 is 32 nM.

Question: What about the EC50 [6] of the same binder?
Answer: The EC50 was 3 nM.

Question: And the EC50 [16]?
Answer: Its EC50 is 14 nM.

Question: What about the EC50 [7] of the same binder?
Answer: The EC50 was 0.4 µg/mL.

Question: What about the EC50 [8] of the same binder?
Answer: Its EC50 is 0.3 µg/mL.

B11: 310A (antibody, V domains shown)
VH: EVQLVESGGGLVRPGESLRLSCVASGFSVSDNYMSWVRQAPGKGLQWVSVIYSGGTTFYTDSVKGRFTISRDKSKNTLFLQMNSLRAEDTAVYFCTRDPSQYYDSRGHYYQTFTPSFDSWGQGTLVTVSS
VL: DIQMTQSPSVMSASVGDRVTITCRASQDISDYLAWFQQKPGKVPKRLIYAASSLQNGVPSRFSGSGSGTEFTLTISSLQPEDFATYYCLQHDTYPLTFGGGTKVEIK
Question: Which results are given for B11?
Answer: EC50 [12]: 53 nM; EC50 [13]: 40 nM; EC50 [9]: 24 nM; EC50 [14]: 15 nM; EC50 [10]: 192 nM; EC50 [11]: 60 nM

B12: NORO-310A (antibody, V domains shown)
VH: B11 VH
VL: B11 VL
Question: How did the EC50 [4] turn out when B12 was run?
Answer: Its EC50 is over 100 µg/mL.

Question: And the EC50 [6]?
Answer: Its EC50 is 19 nM.

Question: And the EC50 [16]?
Answer: Its EC50 is 44 nM.

Question: What about the EC50 [7] of the same binder?
Answer: The EC50 was 1.8 µg/mL.

Question: And the EC50 [8]?
Answer: Its EC50 is 0.6 µg/mL.
